Self-cleavage data for 32 variants are collected here from the RNAGym collection of RNA variant scans (doi:10.7554/elife.80360).

B1: HDV Ribozyme (parent)
chain: GGCCGGCAUGGUCCCAGCCUCCUCGCUGGCGCCGGCUGGGCAACAUUCCGAGGGGACCGUCCCCUCGGUAAUGGCGAAUGGGACCCA

The data set covers variants of B1. The data set is described as follows: self-cleavage, relative activity (ratio to wild type); higher = more cleavage; co-transcriptional.
As for GUCCGGCAUGGUCCCAGCCUCCUCGCUGGCGCCCGCUGGGCAACAUUCCGAGGGGACCGUCCCCUCGGUAAUGGCGAAUGGGACCCA [G2U G34C], the self-cleavage came out at 0.0484.

Take GUCCGGCAUGGUCCCAGCCUCCUCGCUGGCGCCAGCUGGGCAACAUUCCGAGGGGACCGUCCCCUCGGUAAUGGCGAAUGGGACCCA [G2U G34A]: the self-cleavage was determined as 0.0671.

Take GUCCGGCAUGGUCCCAGCCUCCUCGCUGGCGCCGGCUGGGCAACAUUCCGAGGGGACCGUCCCCUCGGUAAUGGCAAAUGGGACCCA [G2U G76A]: the self-cleavage was found to be 0.112.

As for GGACGGCAUGGUCCCAGCCUCCUCGCUGGCGCCGGCUGGGCAACAUUCCGAGGGGACCGUCCCCUCGGUCAUGGCGAAUGGGACCCA [C3A A70C], the self-cleavage came to 0.501.

Turning to GGACGGCAUGGUCCCAGCCUCCUGGCUGGCGCCGGCUGGGCAACAUUCCGAGGGGACCGUCCCCUCGGUAAUGGCGAAUGGGACCCA [C3A C24G], the self-cleavage worked out at 0.089.

On to GUCCGGCAUGGUCCCAGCCUCCGCGCUGGCGCCGGCUGGGCAACAUUCCGAGGGGACCGUCCCCUCGGUAAUGGCGAAUGGGACCCA [G2U U23G], for which the self-cleavage worked out at 0.0287.

For the variant GUCCGGCAUGGUCCCAGCCUCCACGCUGGCGCCGGCUGGGCAACAUUCCGAGGGGACCGUCCCCUCGGUAAUGGCGAAUGGGACCCA [G2U U23A], the self-cleavage is 0.0391.

GGACGGCAUGGUCCCAGCCUCCUCGCUGGCGCCGGCUGGGCAACAUUCCGAGGGGACCGUCCCCUCGGUAAUGGCGAAUGGGGCCCA [C3A A83G]: the self-cleavage was 0.434.

On to GGACGGCAUGGUCCCAGCCUCCUCGCUGGCGCCGGCUGGGCAACAUUCCGAGGGGAUCGUCCCCUCGGUAAUGGCGAAUGGGACCCA [C3A C57U], for which the self-cleavage came out at 0.701.

In the case of GUCCGGCAUGGUCCCAGCCUCCUCGCUGGCGCCGGCUCGGCAACAUUCCGAGGGGACCGUCCCCUCGGUAAUGGCGAAUGGGACCCA [G2U G38C], the self-cleavage was 0.0181.

With GGACGGCAUGGUCCCAGCCUCCUCGCUGGGGCCGGCUGGGCAACAUUCCGAGGGGACCGUCCCCUCGGUAAUGGCGAAUGGGACCCA [C3A C30G], the self-cleavage was determined as 0.0166.

In the case of GGACGGCAUGGUCCCAGCCUCCUCGCUGGCGCCGGCUGGGAAACAUUCCGAGGGGACCGUCCCCUCGGUAAUGGCGAAUGGGACCCA [C3A C41A], the self-cleavage worked out at 0.25.

With GGACGGCAUGGUCCCAGCCUCCUCGCUGGCGCCGGCUGGGUAACAUUCCGAGGGGACCGUCCCCUCGGUAAUGGCGAAUGGGACCCA [C3A C41U], the self-cleavage turned out to be 0.321.

GUCCGGCAUUGUCCCAGCCUCCUCGCUGGCGCCGGCUGGGCAACAUUCCGAGGGGACCGUCCCCUCGGUAAUGGCGAAUGGGACCCA [G2U G10U]: the self-cleavage came to 0.038.

In the case of GGACGGCAUGGUCCCAGCCUCCUCGCUGGCGCCGGCUGGGCAACAUUCCGAGGGGACCGUCCCCUCGGUAAUGGCGAAUGGGACCCU [C3A A87U], the self-cleavage came out at 0.632.

Take GUCCGGCAUGGUCCCAGCCUCCUCGCUGGCGCCGGCUGGGCAACAUUCCGAGGGGACCGCCCCCUCGGUAAUGGCGAAUGGGACCCA [G2U U60C]: the self-cleavage is 0.0287.

Take GUCCGGCAUGGUCCCAGCCUCCUCGCUGGCGCCGGCUGGGCAACAUUCCAAGGGGACCGUCCCCUCGGUAAUGGCGAAUGGGACCCA [G2U G50A]: the self-cleavage came to 0.047.

With GUCCGGCAUGGUCCCAGCCUCCUCGCUGGCGCCGGCUGGGCAACAUUCCCAGGGGACCGUCCCCUCGGUAAUGGCGAAUGGGACCCA [G2U G50C], the self-cleavage is 0.0179.

Turning to GGACGGCAUGGUCCCAGCCUCCUCGCUGGCGCCGGCUGGGCAACAUUCCGAGGGGACCGUCCCCUCGGUAUUGGCGAAUGGGACCCA [C3A A71U], the self-cleavage came to 0.385.

As to GGACGGCAUGGUCCCAGCCUCCUCGCUGGCGCCGGCUGGGCAACAUUCCGAGGGGACCGUCCCCUCGGUAGUGGCGAAUGGGACCCA [C3A A71G], the self-cleavage is 0.38.

As for GUCCGGCAUGGUCCCAGCCUCCUCGCUCGCGCCGGCUGGGCAACAUUCCGAGGGGACCGUCCCCUCGGUAAUGGCGAAUGGGACCCA [G2U G28C], the self-cleavage amounted to 0.0234.

Consider GGACGGCAUGGUCCCAGCCUCCUCGCUGGCGCCGGCUGGGCUACAUUCCGAGGGGACCGUCCCCUCGGUAAUGGCGAAUGGGACCCA [C3A A42U], for which the self-cleavage was 0.0773.

Consider GUCCGGCAUGGUCCCAGCCUCCUCGCUGGCCCCGGCUGGGCAACAUUCCGAGGGGACCGUCCCCUCGGUAAUGGCGAAUGGGACCCA [G2U G31C], for which the self-cleavage is 0.0155.

For the variant GUCCGGCAUGGUCCCAGCCUCCUCGCUGGCGCCGGCUGGGCAACAUUCCGAUGGGACCGUCCCCUCGGUAAUGGCGAAUGGGACCCA [G2U G52U], the self-cleavage came to 0.055.

Take GGACGGCAUGGUCCCAGCCUCCUCGCUGGCGCCGGCUGGGCAACAUUCCGAGGGGCCCGUCCCCUCGGUAAUGGCGAAUGGGACCCA [C3A A56C]: the self-cleavage worked out at 0.495.

Regarding GGACGGCAUGGUCCCUGCCUCCUCGCUGGCGCCGGCUGGGCAACAUUCCGAGGGGACCGUCCCCUCGGUAAUGGCGAAUGGGACCCA [C3A A16U], the self-cleavage was 0.318.

As to GUCCGGCAUGGUCCCAGCCUCCUCGCUGGCGCCGGCUGGGCAACAUUCCGAGGGGACCGUCCCCUCGGUAAUGGCGAAUGGCACCCA [G2U G82C], the self-cleavage is 0.112.

Turning to GGACGGCAUGGUCCCAGCCUCCUCGCUGGCGCCGGCUGGGCAACUUUCCGAGGGGACCGUCCCCUCGGUAAUGGCGAAUGGGACCCA [C3A A45U], the self-cleavage came to 0.269.

With GUCCGGCAUGGUCCCACCCUCCUCGCUGGCGCCGGCUGGGCAACAUUCCGAGGGGACCGUCCCCUCGGUAAUGGCGAAUGGGACCCA [G2U G17C], the self-cleavage is 0.0228.

Turning to GGACGGCAUGGUCGCAGCCUCCUCGCUGGCGCCGGCUGGGCAACAUUCCGAGGGGACCGUCCCCUCGGUAAUGGCGAAUGGGACCCA [C3A C14G], the self-cleavage came out at 0.17.

For the variant GUCCGGCAUGGUCCCAGCCUCCUCGCUGGCGCCGGCUGUGCAACAUUCCGAGGGGACCGUCCCCUCGGUAAUGGCGAAUGGGACCCA [G2U G39U], the self-cleavage amounted to 0.0543.

In the case of GUCCGGCAUGGUCCCAGCCUCCUCGCUGGCGCCGGCUGAGCAACAUUCCGAGGGGACCGUCCCCUCGGUAAUGGCGAAUGGGACCCA [G2U G39A], the self-cleavage came out at 0.00989.
